Assay results from article PMC11841054 (Journal of Bacteriology, 2025).

Biological target: GlnA3Mt (Rv1878), gamma-glutamylspermine synthetase of Mycobacterium tuberculosis (Mycobacterium tuberculosis H37Rv) (UniProt O07752)
Test: SEC

GlnA3Mt (Rv1878), gamma-glutamylspermine synthetase of Mycobacterium tuberculosis (from UniProt O07752 1-450) (enzyme)
stoichiometry N: 12
